Assay results as given in EP4725970A1 (Fortvita Biologics Inc., dated 2026).
Substitutions are numbered along the chain they refer to. Read-outs that look alike come from different tables or passages of the source. Values belong to the binder of their own block, whether it stands above or below them.

Legend:
[1] = biological target: T1, human GPRC5D (full-length, on cells) (human, UniProt Q9NZD1 1-345); experiment: cell-based or functional assay
[2] = biological target: T1, human GPRC5D (full-length, on cells); experiment: cell-based or functional assay; remark: listed apart in the source
[3] = biological target: T2, BCMA-R27P (on cells) (human, UniProt Q02223 1-184); experiment: flow cytometry on 293T and GS CHO cells (FIG. 2I, 2J)
T2 construct: also called hBCMA-R27P; 293T-hBCMA-R27P
T2 chain: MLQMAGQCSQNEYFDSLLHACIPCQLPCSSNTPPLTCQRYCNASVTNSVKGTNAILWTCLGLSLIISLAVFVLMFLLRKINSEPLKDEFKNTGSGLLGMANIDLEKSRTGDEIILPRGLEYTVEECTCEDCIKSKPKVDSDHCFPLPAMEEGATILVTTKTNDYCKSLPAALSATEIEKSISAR

[4] = biological target: T3, BCMA-R39A (on cells) (human, UniProt Q02223 1-184); experiment: as above
T3 construct: also called hBCMA-R39A; 293T-hBCMA-R39A
T3 chain: T2 chain with P27R, R39A

[5] = biological target: T4, human CD3 (on Jurkat cells and human T cells) (human, UniProt P07766 23-207); experiment: flow cytometry, Jurkat cells
T4 construct: whole, on cells; the other chains of the complex on the cells are not described; also called CD3E
T4 sequence (P07766 23-207): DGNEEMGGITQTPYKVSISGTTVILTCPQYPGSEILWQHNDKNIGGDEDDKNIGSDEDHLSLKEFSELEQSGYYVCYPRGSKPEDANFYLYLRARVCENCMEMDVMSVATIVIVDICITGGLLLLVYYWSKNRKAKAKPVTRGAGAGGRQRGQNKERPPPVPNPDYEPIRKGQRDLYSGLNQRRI

[6] = biological target: T4, human CD3 (on Jurkat cells and human T …); experiment: flow cytometry, human CD8 T cells
[7] = biological target: T5, cynomolgus monkey BCMA (full-length, on cells) (cynomolgus monkey, UniProt A0A2K5UD97 1-183); experiment: flow cytometry, GS-CHO-cynoBCMA cells
T5 construct: whole, on cells; also called cynoBCMA; GS-CHO-cynoBCMA
T5 sequence (A0A2K5UD97 entry or part of it): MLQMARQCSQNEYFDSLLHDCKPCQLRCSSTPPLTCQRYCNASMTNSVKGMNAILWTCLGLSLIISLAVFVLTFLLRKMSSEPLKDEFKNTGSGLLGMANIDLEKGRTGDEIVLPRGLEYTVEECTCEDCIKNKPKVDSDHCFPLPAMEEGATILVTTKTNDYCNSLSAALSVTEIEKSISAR

[8] = biological target: T6, human BCMA (full-length, on cells) (human, UniProt Q02223 1-184); experiment: cell-based or functional assay
T6 sequence: T2 chain with P27R

[9] = biological target: T7, human CD3E&G-His/Free (human, UniProt P07766 23-126; P09693 23-116); experiment: BLI (Octet), 1:1 fit
T7 construct: Bought recombinant heterodimer; 'His/Free' as printed (one chain His-tagged); also called human CD3 E&G heterodimer
T7 sequence (P07766 23-126, chain 1 of 2): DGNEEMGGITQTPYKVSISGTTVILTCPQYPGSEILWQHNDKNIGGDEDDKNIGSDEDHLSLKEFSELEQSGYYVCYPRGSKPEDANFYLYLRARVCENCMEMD
T7 sequence (P09693 23-116, chain 2 of 2): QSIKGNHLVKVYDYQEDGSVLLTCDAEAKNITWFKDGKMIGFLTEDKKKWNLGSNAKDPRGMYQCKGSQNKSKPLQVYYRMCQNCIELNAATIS

[10] = biological target: T8, cyno CD3E&G-His/Free (cynomolgus monkey, UniProt Q95LI5 22-117; Q95LI7 23-113); experiment: BLI (Octet), 1:1 fit
T8 construct: Bought recombinant heterodimer; also called monkey CD3 E&G
T8 sequence (looked up) 1: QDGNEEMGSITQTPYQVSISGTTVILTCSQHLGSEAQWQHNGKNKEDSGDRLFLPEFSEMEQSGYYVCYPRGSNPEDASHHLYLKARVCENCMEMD
T8 sequence (looked up) 2: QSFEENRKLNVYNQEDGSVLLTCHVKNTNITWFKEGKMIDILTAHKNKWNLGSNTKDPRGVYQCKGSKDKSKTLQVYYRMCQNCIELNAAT

[11] = biological target: T6, human BCMA (full-length, on cells); experiment: cell-based or functional assay; remark: listed apart in the source
[12] = biological target: T6, human BCMA (full-length, on cells); experiment: flow cytometry, GS-CHO-hBCMA cells
[13] = biological target: T4, human CD3 (on Jurkat cells and human T …); experiment: flow cytometry, human CD4 T cells
[14] = biological target: T1, human GPRC5D (full-length, on cells); experiment: flow cytometry, GS-CHO-hGPRC5D cells
[15] = biological target: T6, human BCMA (full-length, on cells); experiment: cell-based or functional assay; remark: listed apart in the source
[16] = biological target: T9, cynomolgus monkey GPRC5D (full-length, on cells) (cynomolgus monkey, UniProt A0A2K5W6I7 1-300); experiment: flow cytometry, GS-CHO-cynoGPRC5D cells
T9 construct: also called cynoGPRC5D; GS-CHO-cynoGPRC5D
T9 sequence (A0A2K5W6I7 entry or part of it limits assumed, form in doubt): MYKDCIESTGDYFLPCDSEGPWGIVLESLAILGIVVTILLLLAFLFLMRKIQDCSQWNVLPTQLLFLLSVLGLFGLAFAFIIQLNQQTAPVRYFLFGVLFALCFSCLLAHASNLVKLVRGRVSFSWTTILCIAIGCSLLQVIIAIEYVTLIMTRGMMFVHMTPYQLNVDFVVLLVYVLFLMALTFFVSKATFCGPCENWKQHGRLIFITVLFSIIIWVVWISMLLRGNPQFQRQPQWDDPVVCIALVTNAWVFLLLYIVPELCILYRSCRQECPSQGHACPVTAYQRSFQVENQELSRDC

[17] = biological target: T1, human GPRC5D (full-length, on cells); experiment: cell-based or functional assay; remark: listed apart in the source
[18] = biological target: T1, human GPRC5D (full-length, on cells); experiment: cell-based or functional assay; remark: listed apart in the source
[19] = biological target: T6, human BCMA (full-length, on cells); experiment: cell-based or functional assay; remark: listed apart in the source

T1 sequence (Q9NZD1 whole entry): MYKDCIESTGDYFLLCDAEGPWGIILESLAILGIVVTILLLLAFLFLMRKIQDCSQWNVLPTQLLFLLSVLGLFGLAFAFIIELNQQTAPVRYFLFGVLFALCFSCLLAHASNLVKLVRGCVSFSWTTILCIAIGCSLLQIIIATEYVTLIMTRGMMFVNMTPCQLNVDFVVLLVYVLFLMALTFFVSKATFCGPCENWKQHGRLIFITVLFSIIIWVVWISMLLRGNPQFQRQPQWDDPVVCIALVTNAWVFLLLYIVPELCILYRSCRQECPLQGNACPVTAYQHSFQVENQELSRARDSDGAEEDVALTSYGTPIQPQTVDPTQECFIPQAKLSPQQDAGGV

binding result [3]: binds
binding result [4]: binds
EC50 [5]: 34.5 nM
EC50 [6]: 54.5 nM
EC50 [7]: 14.2 nM
Kd [9]: 13.3 nM
koff [9]: 0.00859 s⁻¹
kon [9]: 646000 M⁻¹ s⁻¹
Kd [10]: 9.51 nM
koff [10]: 0.00658 s⁻¹
kon [10]: 692000 M⁻¹ s⁻¹
EC50 [12]: 11.4 nM
EC50 [13]: 53.6 nM
EC50 [14]: 80.7 nM
EC50 [16]: 256 nM
B1: B3 (24) (hz5E12_sp34.24_497_triFab) (trispecific antibody, human IgG1, kappa, lambda, L234A L235A)
heavy 1: not shown
light 1: DIVMTQSPDSLAVSLGERATINCRASESVDSYGITFMNWYQQKPGQPPKLLIYAASNQGSGVPDRFSGSGSGTDFTLTISSLQAEDVAVYYCQQSKEVPWTFGQGTKLEIKRTVAAPSVFIFPPSDEQLKSGTASVVCLLNNFYPREAKVQWKVDNALQSGNSQESVTEQDSKDSTYSLSSTLTLSKADYEKHKVYACEVTHQGLSSPVTKSFNRGEC
heavy 2: not shown
light 2: DIQMTQSPSSLSASVGDRVTITCRASQSISRYLNWYQDKPGKAPKLLIYAASSLQSGVPSRFSGSGSGTDFTLTISSLQPEDFATYYCQQKYFDITFGGGTKVEIKRTVAAPSVFIFPPSDECLKSGTASVVCLLNNFYPREAKVQWKVDNALQSGNSQESVTEQDSKDSTYSLSSTLTLSKADYEKHKVYACEVTHQGLSSPVTKSFNRGES
light 3: QAVVTQEPSLTVSPGGTVTLTCRSSTGAVTTSNYANWVQKKPGQAPRGLIGGTNKRAPGVPARFSGSLLGDKAALTLLGAQPEDEAEYYCALWYSNLWVFGQGTKLTVLGQPKAAPSVTLFPPSSEELQANKATLVCLISDFYPGAVTVAWKADSSPVKAGVETTTPSKQSNNKYAASSYLSLTPEQWKSHRSYSCQVTHEGSTVEKTVAPTECS
notes: also called Exemplary antibody No. 1
EC50 of PBMC killing of H929 ko BCMA cells, donor1 [1]: 0.00931 nM
EC50 of PBMC killing of H929 ko BCMA cells (LDH) [2]: 0.00149 nM
EC50 of PBMC killing of H929 ko GPRC5D cells (LDH) [8]: 0.017 nM
EC50 of PBMC killing of H929 ko GPRC5D cells (LDH) [11]: 0.0867 nM
EC50 of PBMC killing of H929 ko GPRC5D cells, donor1 [15]: 0.0175 nM
EC50 of PBMC killing of H929 ko BCMA cells (LDH) [17]: 0.00698 nM

B2: Inno-G-7F5.3 (trispecific antibody, human IgG1, kappa, lambda, L234A L235A)
heavy 1: not shown
light 1: not shown
heavy 2: not shown
light 2: DIQMTQSPSSLSASVGDRVTITCRASQSISSYLNWYQDKPGKAPKLLIYAASSLQSGVPSRFSGSGSGTDFTLTISSLQPEDFATYYCQQADLPAFAFGGGTKVEIKRTVAAPSVFIFPPSDECLKSGTASVVCLLNNFYPREAKVQWKVDNALQSGNSQESVTEQDSKDSTYSLSSTLTLSKADYEKHKVYACEVTHQGLSSPVTKSFNRGES
light 3: B1 light 3
EC50 of PBMC killing of L363 cells [18]: 1.07 nM

B3: Inno-G (hz5E12_sp34.24_Hel_triFab) (trispecific antibody, human IgG1, kappa, lambda, L234A L235A)
heavy 1: not shown
light 1: B1 light 1
heavy 2: not shown
light 2: B2 light 2
light 3: B1 light 3
EC50 of PBMC killing of L363 cells [18]: 0.355 nM

B4: Inno-B (Hel_sp34.24_497_triFab) (trispecific antibody, human IgG1, kappa, lambda, L234A L235A)
heavy 1: not shown
light 1: not shown
heavy 2: not shown
light 2: B1 light 2
light 3: B1 light 3
EC50 of PBMC killing of L363 cells [19]: 0.192 nM
